Results: PMC1802081

Columns and labels:
Experiment in all cases: SPR; BIACORE 2000; biotinylated ligand on a streptavidin-modified CM5 chip (about 200 RU); receptor ectodomain as analyte at 1, 2, 3, 5, 10, 20 and 50 uM; HBS500 (10 mM HEPES pH 7.4, 500 mM NaCl, 3.4 mM EDTA, 0.005% P20); apparent KD from the dose dependence of equilibrium binding
BMP-2 N102D = biological target: BMP-2 N102D
BMP-2 A86P = biological target: BMP-2 A86P
BMP-2 L100K = biological target: BMP-2 L100K
[1] = biological target: BMP-2 variant L100K/N102D
BMP-2 S85R = biological target: BMP-2 S85R
BMP-2 S85R/A86P = biological target: BMP-2 S85R/A86P

rel. KD (against wildtype BMP-2 from E. coli with the same receptor) (BMP-2 N102D) | rel. KD (against wildtype BMP-2 from E. coli with the same receptor) (BMP-2 A86P) | rel. KD (against wildtype BMP-2 from E. coli with the same receptor) (BMP-2 L100K) | Kd [1] | rel. KD (against wildtype BMP-2 from E. coli with the same receptor) (BMP-2 S85R) | rel. KD (against wildtype BMP-2 from E. coli with the same receptor) (BMP-2 S85R/A86P) | rel. KD (against wildtype BMP-2 from E. coli with the same receptor) [1] | Binder
7.8 fold | 2.6 fold | 0.15 fold | 0.14 µM | 1.3 fold | 1.4 fold | – | ActR-IIBECD wildtype (activin type IIB receptor ectodomain) (receptor) SGRGEAETRECIYYNANWELERTNQSGLERCEGEQDKRLHCYASWRNSSGTIELVKKGCWLDDFNCYDRQECVATEENPQVYFCCCEGNFCNERFTHLPEPGGPEVTYEPPPTAPTLLT
– | – | – | 160 µM | – | – | – | ActR-IIBECD L61P (receptor) SGRGEAETRECIYYNANWELERTNQSGLERCEGEQDKRLHCYASWRNSSGTIELVKKGCWPDDFNCYDRQECVATEENPQVYFCCCEGNFCNERFTHLPEPGGPEVTYEPPPTAPTLLT
– | – | – | 14 µM | – | – | – | ActR-IIBECD L61A (receptor) SGRGEAETRECIYYNANWELERTNQSGLERCEGEQDKRLHCYASWRNSSGTIELVKKGCWADDFNCYDRQECVATEENPQVYFCCCEGNFCNERFTHLPEPGGPEVTYEPPPTAPTLLT
0.96 fold | 0.5 fold | 1.3 fold | – | 0.12 fold | 0.19 fold | 0.92 fold | BMPR-II receptor ectodomain (receptor) SQNQERLCAFKDPYQQDLGIGESRISHENGTILCSKGSTCYGLWEKSKGDINLVKQGCWSHIGDPQECHYEECVVTTTPPSIQNGTYRFCCCSTDLCNVNFTENFPPPDTTPLSPPHSFNRDET
